Source: the RNAGym collection of RNA variant scans (doi:10.7554/elife.90254)

B1: LINE1-full (parent)
chain: UACGUAGGUGGUUUUCCCCUGAUAGUGCUAAGGGGGCCUGGAAGUUUGGACUGGGCAGAGCUCAACACAGCGUGGCAAAGUGGCUGUGGCUAGACUGCCUCUCUGGAUUCCUCGUCACUCAGCAGGGCAUCUCUGAGAGAAAUGCC

Variants of: B1
Experiment: self-cleavage, relative activity (ratio to wild type); higher = more cleavage; in vitro, sequencing; the parent is a self-cleaving ribozyme

Variant	self-cleavage
G82A A129G	2.28
G82A A129U	1.21
U85A U109C	0.07
U85A U109A	0.06
A79U C99A	0.31
U81A U85C	0.16
A78U U112A	2.12
U85A G114A	0.08
A79U C84A	0.21
A79U U102A	2.23
G83U U143C	1.01
U85A A94G	0.15
C84U A121U	0.11
A79G U104G	1.7
A79G U104C	1.22
A79G U104A	1.35
U85A C111A	0.06
U81A A121G	2.65
U81A A121U	1.7
G80A G86A	0.05
C84U U100A	0.07
U81G A124U	1.75
U81G A140U	1.35
U85A U100A	0.05

Variant	self-cleavage
U81A U108C	2.2
U81A U108A	2.18
A79G G137A	1.03
G80C G86U	0.04
A79G G86U	0.1
A79G G114A	1.23
U85C C123G	0.15
A79U G125A	1.6
U81C U96C	0.2
U81C U96A	0.1
C84U A142G	0.12
A79G A140G	1.12
G80U A138G	1.45
A79U U91C	1.04
C84G A140G	0.12
C84A G93U	0.05
A79G U81C	0.27
A79G U81A	2.28
U81A U130A	1.3
A78U U119C	2.05
A79G G80A	1.89
U81A U112C	2.32
A79G U108C	1.61
A79G U108A	1.17

Variant	self-cleavage
A79U U112C	1.95
G80A U100C	1.42
U85C C99A	0.16
A79G U91A	0.32
U81C C101U	2.14
U81C U143C	1.61
G82A U102C	1.57
A79G A138C	2.4
U81C U104C	1.48
A79G A136G	1.42
C84U U119C	0.12
U81G A141G	1.85
A79U A117G	2.57
A79G C128A	0.46
G83C U132A	0.73
G83C U143G	1.08
U81A U100C	2.98
G82A A94G	0.26
U81A C146A	2.08
G82A A92G	0.04
U81C U91A	0.56
U85A U96A	0.12
U85A U96C	0.09
G80C A141G	1.04

Variant	self-cleavage
G82A G114C	3
G80U U134A	1.45
U81C G125U	1.5
A79G U143C	1.47
U85A A92U	0.11
U85A A92G	0.13
A79C A121G	1.67
U81A A124U	1.78
U85A U108A	0.17
U85A U108G	0.12
U85A U108C	0.12
C84U A140G	0.07
G80A A121C	2.91
A79G A94G	0.35
A79G A117G	1.27
U81C A121C	1.37
G82A U134G	1.08
U85A C101U	0.06
U85C C118U	0.1
G82A U85C	0.23
G82A U85A	0.14
U81A U91A	0.93
A79G U115A	1.4
U81C U100C	1.29

Variant	self-cleavage
U85A A142G	0.08
U85A U115A	0.09
U85A U115C	0.13
G80A A138G	2.06
U81C U134C	1.36
U81C U134A	0.94
G80A A124U	2.27
A79G C110U	2.15
A79G C110A	1.29
G80U U132A	2.3
U81C G89A	0.06
G80A A141G	1.89
A79G C120A	1.39
A79C A129G	1.93
C84A A138G	0.05
A79G U112A	1.54
C84A C131A	0.18
A79U A121C	1.64
U85A G126U	0.07
G82A	1.75
G82U	1.52
U81G U134G	1.73
A79C U91A	0.94
U85A A117C	0.07

Variant	self-cleavage
U85A A117U	0.09
U85A A117G	0.15
C84U U108C	0.15
U85A A138G	0.07
U85A A138U	0.06
G83A C90U	0.06
A79G G105U	1.19
A79G G105A	1.29
G83U U108C	1.07
G83A U100C	1.21
A78U U143C	1.31
A79U A107U	1.74
A79G A142U	2.04
G80U A124G	1.69
A79G U109A	1.19
A79G U109C	1.26
U85C A136G	0.2
U85C A136C	0.24
U85C A136U	0.24
A79G C84G	0.07
U81C G114A	1.17
U81A A107G	1.84
A78U U115C	1.72
U81C C146A	1.8

Variant	self-cleavage
U81C G127A	2.07
U81C U130A	1.27
U81C U130C	1.88
G82A U91C	0.94
U81C A138C	2.23
U81C A138U	1.22
U81C C111U	1.75
G82U A117U	1.3
G80A U102C	1.92
C84U A124U	0.18
A79G C118U	2.23
U85A U132A	0.08
U81C U87A	0.1
A79G C145U	1.09
A79G A124G	0.62
G80A G89A	0.07
A79U U143C	2.02
A79U U143A	1.29
G82A A141G	1.8
A79U U109G	1.1
A79U U109C	1.34
U85A A141G	0.07
U85A A141U	0.07
G82A C99A	0.78

Variant	self-cleavage
U85C A138U	0.13
U85C A138G	0.17
G80A A107U	2.11
U85A A124U	0.08
U81G G122U	1.42
G83A A140G	0.49
G80C U109C	1.27
U81G U115A	1.28
A79U G114A	1.79
U81A A140G	1.95
U85C A140U	0.16
A79G U134C	1.25
A79G U134G	0.57
A79C A136G	1.93
U81A U102C	2.18
A79C U85C	0.58
G82A A117G	1.77
U81C G144A	0.42
A79G U102A	1.12
A79G U102C	0.89
U81A G114C	2.67
A79G A129U	1.16
G80C C98U	0.26
U81A U134C	2.26

Variant	self-cleavage
G80A G88U	0.15
A79U G86A	0.07
G83A U109A	0.96
U81C G88A	0.12
U81C G88U	0.05
C84U A141G	0.14
A79C	1.57
A79U	1.85
A79G	1.25
U85C C146U	0.27
U85C C146A	0.48
G80U A121G	1.5
A79G G88U	0.05
A79C U119A	1.01
A79G U87G	0.07
A79G A92U	0.66
A79G A92G	0.18
U81C U85C	0.12
U85A G93A	0.05
U85A G93U	0.08
A79G U132G	0.63
A79G C101A	0.68
A79U U115C	1.12
U85A A107G	0.08

Variant	self-cleavage
G80A C128U	1.9
U85A U104G	0.02
U85A U104C	0.13
U85A U104A	0.03
U85A A129G	0.07
U85A A129U	0.12
G83U U119A	0.65
U81A C123U	1.01
G83U U102C	0
U85A C128G	0.06
U81G U104C	0.26
G83A G127A	0.52
A79G G135A	1.38
G80A U87C	0.2
A79C A138U	2.19
G83A U96C	0.11
C84G U104C	0.11
A79G U96C	0.16
A79G U96A	0.09
G83A A92U	0.27
A79G G144C	0.77
A79G G122A	1.31
G83A U130C	1.13
G83A A142G	0.97

Variant	self-cleavage
A79C A92G	0.24
G80A G127C	1.6
G80C A121G	1.18
G80A A136U	2.49
U81C U119C	1.84
U81C U109C	0.38
A79C U134A	1.24
C84U U96C	0.04
U81A U87A	0.11
U81A U87C	0.19
A79G G89U	0.05
C84U U102C	0.16
G82A A142G	2.1
G80A A94G	0.23
A78U U130C	2.68
A79G G126A	1.51
G80U A107G	0.94
C84A A140G	0.13
U81A A94U	0.6
U81A A94G	0.37
U85A A136G	0.11
G82A U104C	0.83
A79U A141U	2.36
U81C C95U	0.26

Variant	self-cleavage
U85A A140G	0.08
U85A A140U	0.09
G83A U132A	1.09
U81C G139A	1.63
A79G U119G	1.31
A79G U119C	1.48
U85A U102C	0.13
A79C A141G	1.96
U81C A117U	1.56
U81C A117C	1.59
A79G G125C	1.28
G83A U134C	1.13
C84A U130A	0.07
C84G U132C	0.11
U81G C113U	1.99
A79G C98G	0.12
U81C A140U	1.9
A79G A107C	0.92
A79G A107G	1.21
A79G G82U	1.32
A79G A121U	1.13
A79G C113A	0.14
G80A U112C	1.43
G83A A124U	0.79

Variant	self-cleavage
C84U C98G	0.08
A79U C116A	1.49
U81A U104A	1.81
U81A U104C	2.77
A79G U130A	1.09
U81C G126U	1.4
U85C A92U	0
C84G U96A	0.09
U81A A92G	0.15
G83A A121C	0.67
U85A C120A	0.07
U85A C120U	0.2
G83A G144U	1.55
U85A U91A	0.11
U85A U91C	0.04
G82U A129G	1.54
U81C A141G	1.07
A79U C101A	1.92
A79C G89A	0.09
C84A A136U	0.19
C84U A117G	0.2
G80A G126U	2.06
U81C A129G	1.56
G82U U112C	1.18

Variant	self-cleavage
A79G C116U	1.63
C84U U85C	0
U81A U109A	2.28
A79G U100A	0.71
C84U U109C	0.1
U81C A124U	0.74
U81C A124G	1.25
C84U G114U	0.15
G82A A136G	2.28
A79G G83U	0.2
U85C A117C	0.25
U81A C118U	1.78
U85C A142G	0.17
U85C A142U	0.21
U85C C95U	0.06
U85A	0.09
U85C	0.18
C84A U112C	0.16
U85A U134G	0.12
A79U U108C	2.3
U81C U112C	1.26
G83U A141G	0.99
